Data as given in patent US20200407449A1 (PHARMABCINE, published 2020).

T1: hVISTA-Fc (R&D systems. Cat. No. 7126-B7) (human, UniProt Q9H7M9 33-194)
T1 construct: Bought antigen; also called human VISTA-Fc; VISTA-FC Human
T1 sequence: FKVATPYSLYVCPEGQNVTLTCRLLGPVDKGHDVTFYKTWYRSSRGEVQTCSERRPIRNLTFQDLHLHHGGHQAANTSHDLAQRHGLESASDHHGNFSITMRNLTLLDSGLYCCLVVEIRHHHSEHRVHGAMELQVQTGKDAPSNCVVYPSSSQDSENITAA


What was measured:
[1] = target: T1, hVISTA-Fc (R&D systems. Cat. No. …); assay: Octet (BLI), antibody as ligand on biosensor, VISTA-Fc as analyte
Procedure: (§1) The binding ability of the screened antibody to the antigen was measured using an Octet (ForteBio). For this purpose, the antibody was immobilized on a biosensor, various concentrations of antigen were added to a 96-well plate, and then the binding ability was measured.
Octet was used to evaluate the binding strength of the optimized anti-VISTA antibody while excluding clones with low productivity therefrom, and the experiment was performed in the same manner as the method presented in Example 6 (Table 11).

[2] = target: T1, hVISTA-Fc (R&D systems. Cat. No. …); assay: Octet (BLI), antibody immobilised on biosensor, antigen in solution
Procedure: as §1

Kd [1] [nM]	koff [1] [s⁻¹]	kon [1] [M⁻¹ s⁻¹]	Kd [2] [nM]	koff [2] [s⁻¹]	kon [2] [M⁻¹ s⁻¹]	Binder
13.6	0.00209	154000	9.29	0.00103	111000	anti-VISTA antibody 1B8 (IgG form) (antibody, V domains shown, also called Anti VISTA 3.0(1B8); anti-VISTA mAb 1B8) VH: QMQLVQSGAEVKKPGSSVKVSCKASGGSSSNYAISWVRQAPGQGLEWMGGIIPIFGTTSYAQKFQGRVTITADGSMSTAYMELSSLRSEDTAVYYCAKGAIEPWPFYFDNWGQGTLVTVSS VL: QLVLTQPRSVSGSPGQSVTISCTGTNSDVGAYNYLSWYQQLPGRAPKVIIYDVNKRPSGVPDRFSGSRSGKTASLTISGLQAEDEADYYCAAWDDSLNGLVFGGGTKLTVLG
0.606	0.000134	225000	–	–	–	PMC-309.3.4SA (antibody, V domains shown, light chain SA; also called PMC-309.3.45A) VH: QVQLVQSGAEVKKPGSSVKVSCKASGGSSSNYAISWVRQAPGQGLEWMGGIIPIFGTTSYAQKFQGRVTITADKSTSTAYMELSSLRSEDTAVYYCAKGAIEPWPFYFDNWGQGTLVTVSS VL: QSALTQPRSVSGSPGQSVTISCTGTNSDVGAYNYLSWYQQLPGRAPKVIIYDVNKRPSGVPDRFSGSRSGKTASLTISGLQAEDEADYYCAAWDDNLYGLVFGGGTKLTVL
0.516	9.56e-05	185000	–	–	–	PMC-309.3.3 (antibody, V domains shown) VH: QMQLVQSGAEVKKPGSSVKVSCKASGGSSSNYAISWVRQAPGQGLEWMGGIIPIFGTTSYAQKFQGRVTITADGSMSTAYMELSSLRSEDTAVYYCAKGAIEPWPFYFDNWGQGTLVTVSS VL: QLVLTQPRSVSGSPGQSVTISCTGTNSDVGAYNYLSWYQQLPGRAPKVIIYDVNKRPSGVPDRFSGSRSGKTASLTISGLQAEDEADYYCAAWDDNLYGLVFGGGTKLTVLG
12.8	0.00191	149000	–	–	–	Anti VISTA_V3_2 (IgG form) (antibody, V domains shown) VH: QMQLVQSGAEVKKPGSSVKVSCKASGGSSSNYAISWVRQAPGQGLEWMGGIIPIFGTTSYAQKFQGRVTITADGSMSTAYMELSSLRSEDTAVYYCAKGAIEPWPFYFDNWGQGTLVTVSS VL: QLVLTQPRSVSGSPGQSVTISCTGTNSDVGAYNYLSWYQQLPGRAPKVIIYDVNKRPSGVPDRFSGSRSGKTASLTISGLQAEDEADYYCAAWDDSLNDLVFGGGTKLTVLG
2.86	0.00015	52500	–	–	–	Anti VISTA_V3_1 (IgG form) (antibody, V domains shown) VH: QMQLVQSGAEVKKPGSSVKVSCKASGGSSSNYAISWVRQAPGQGLEWMGGIIPIFGTTSYAQKFQGRVTITADGSMSTAYMELSSLRSEDTAVYYCAKGAIEPWPFYFDNWGQGTLVTVSS VL: QLVLTQPRSVSGSPGQSVTISCTGTNSDVGAYNYLSWYQQLPGRAPKVIIYDVNKRPSGVPDRFSGSRSGKTASLTISGLQAEDEADYYCAAWDDSLYGLVFGGGTKLTVLG
0.496	9.38e-05	189000	–	–	–	PMC-309.3.4w (antibody, V domains shown, Heavy chain G-H (framework substituted), wt light chain) VH: QVQLVQSGAEVKKPGSSVKVSCKASGGSSSNYAISWVRQAPGQGLEWMGGIIPIFGTTSYAQKFQGRVTITADKSTSTAYMELSSLRSEDTAVYYCAKGAIEPWPFYFDNWGQGTLVTVSS VL: QLVLTQPRSVSGSPGQSVTISCTGTNSDVGAYNYLSWYQQLPGRAPKVIIYDVNKRPSGVPDRFSGSRSGKTASLTISGLQAEDEADYYCAAWDDNLYGLVFGGGTKLTVLG
–	–	–	5.8	0.000142	24500	anti-VISTA antibody 2B7 (IgG form) (antibody, V domains shown) VH: QVQLVQSGGGLVKPGGSLRLSCAASGFTFSGSAMHWVRQASGKGLEWVGRIRSKANSYATAYAASVKGRFTISRDDSKNTAYLQMNSLKTEDTAVYYCSRVNSGYYGPDYWGKGTLVTVSS VL: not shown
